According to paper PMC10305218, “Expression of β-Glucosidases from the Yak Rumen in Lactic Acid Bacteria: A Genetic Engineering Approach” (Microorganisms, 2023):

B1: BglB (Paenibacillus polymyxa) (protein)
chain: NTFIFPATFMWGTSTSSYQIEGGTDEGGRTPSIWDTFCQIPGKVIGGDCGDVACDHFHHFKEDVQLMKQLGFLHYRFSVAWPRIMPAAGIINEEGLLFYEHLLDEIELAGLIPMLTLYHWDLPQWIEDEGGWTQRETIQHFKTYASVIMDRFGERINWWNTINEPYCASILGYGTGEHAPGHENWREAFTAAHHILMCHGIASNLHKEKGLTGKIGITLNMEHVDAASERPEDVAAAIRRDGFINRWFAEPLFNGKYPEDMVEWYGTYLNGLDFVQPGDMELIQQPGDFLGINYYTRSIIRSTNDASLLQVEQVHMEEPVTDMGWEIHPESFYKLLTRIEKDFSKGLPILITENGAAMRDELVNGQIEDTGRHGYIEEHLKACHRFIEEGGQLKGYFVWSFLDNFEWAWGYSKRFGIVHINYETQERTPKQSALWFKQMMAKNGF
notes: amplified from yak rumen metagenomic DNA; usp45 signal peptide, pMG36e, secreted by L. lactis NZ9000; about 55 kDa; gene 1361 bp; supernatant / TCA-acetone precipitate
B2: BglA (Paenibacillus polymyxa) (protein)
chain: MTIFQFPQDFMWGTATAAYQIEGAYQEDGRGLSIWDTFAHTPGKVFNGDNGNVACDSYHRYEEDIRLMKELGIRTYRFSVSWPRIFPNGDGEVNQEGLDYYHRVVDLLNDNGIEPFCTLYHWDLPQALQDAGGWGNRRTIQAFVQFAETMFREFHGKIQHWLTFNEPWCIAFLSNMLGVHAPGLTNLQTAIDVGHHLLVAHGLSVRRFRELGTSGQIGIAPNVSWAVPYSTSEEDKAACARTISLHSDWFLQPIYQGSYPQFLVDWFAEQGATVPIQDGDMDIIGEPIDMIGINYYSMSVNRFNPEAGFLQSEEINMGLPVTDIGWPVESRGLYEVLHYLQKYGNIDIYITENGACINDEVVNGKVQDDRRISYMQQHLVQVHRTIHDGLHVKGYMAWSLLDNFEWAEGYNMRFGMIHVDFRTQVRTPKESYYWYRNVVSNNWLETRR
notes: as for B1

Assays:
[1] = substrate: OCc1ccccc1O[C@@H]1O[C@H](CO)[C@@H](O)[C@H](O)[C@H]1O; assay: DNS reducing sugar assay, Michaelis-Menten / Lineweaver-Burk fit; assay type: biochemical, Paenibacillus polymyxa; settings: 50 °C, pH 7.0, bacterial supernatant
Text: DNS reducing sugar assay, Michaelis-Menten / Lineweaver-Burk fit on BglB

[2] = substrate: OCc1ccccc1O[C@@H]1O[C@H](CO)[C@@H](O)[C@H](O)[C@H]1O; assay: as above; assay type: biochemical, Paenibacillus polymyxa; settings: 50 °C, pH 7.0, bacterial supernatant; remark: listed apart in the source
Text: DNS reducing sugar assay, Michaelis-Menten / Lineweaver-Burk fit on BglA

Protein	Km [1] [µM]	Vmax [1] [µmol/min/mg]	kcat [1] [s⁻¹]	kcat/Km [1] [M⁻¹ s⁻¹]	Km [2] [µM]	Vmax [2] [µmol/min/mg]	kcat [2] [s⁻¹]	kcat/Km [2] [M⁻¹ s⁻¹]
B1	43.99	1250	349	7.93e+06	–	–	–	–
B2	–	–	–	–	38.61	1340	435	1.13e+07
